Assay results reported in patent publication US20120088722.

Tested on: T1, fluorescence labeled peptide of the protease-sensitive hinge region of LTBP1, REHGARS
T1 sequence: REHGARS

MMP13 catalytic domain (Enzo, Inc) was tested, and the “Km (Michaelis-Menten non-linear fit, digest of fluorescence labeled hinge substrate)” value was “Km=1.628e-016”.
